Test system: cell line E15 and the line W10
Assay: Cell lines E15 and W10 in micromass versus HyStem-C culture with BMP4, gene expression
Assay type: cell-based, human
Conditions: micromass conditions supplemented with 10 ng/mL BMP4
Protocol: In addition, the incubation of hEP cell lines in HyStem-C (BioTime, Inc. Alameda, Calif.) allowed the accumulation of a large amount of data on the biological influence of HyStem-C (BioTime, Inc. Alameda, Calif.) on diverse cell types. […] This physiological effect on myofibroblastic differentiation seen in many lines cultured in HyStem-C (BioTime, Inc. Alameda, Calif.) beads (i.e., the strong reduction in MYH11 expression) has therapeutic implications in vivo, such as in inhibiting fibrosis or adhesions. It also is of benefit in surgical settings where cells could be transplanted to regenerate tissue function while inhibiting adhesions and related fibrotic process at the surgical site.
The present invention utilizes micromass differentiations to generate high-density cultures, thereby predisposing hEP cells to differentiation in the presence of exogenous factors. Differentiation by micromass culture was performed according to the manufacturer's (BioTime) instructions (Chondrogenesis Differentiation Kit ES-K42). Briefly, cells were cultured in the undifferentiated state, trypsinized (0.25% w/v trypsin/EDTA (Invitrogen)), diluted 1:3 with PBS (Ca and Mg free), and resuspended at a cell density of 2.0×10^7 cells/ml in their respective growth media. […]

B1: BMP4: Bone Morphogenetic Protein 4, TGF-beta superfamily member (protein, UniProt P12644 293-408, looked up)
Bone morphogenetic protein 4: SPKHHSQRARKKNKNCRRHSLYVDFSDVGWNDWIVAPPGYQAFYCHGDCPFPLADHLNSTNHAIVQTLVNSVNSSIPKACCVPTELSAISMLYLDEYDKVVLKNYQEMVVEGCGCR
B1 was tested. Which MYH11 expression did it give?
Its MYH11 expression is “strongly induced”.

— patent US20230093399A1, “METHODS FOR GENERATING PLURIPOTENT STEM CELL-DERIVED BROWN FAT CELLS” (AgeX Therapeutics, Inc., priority 2013, published 2023)
